Results on eleven molecules are retold here after patent US20260365755 (published 2026).

Among the targets are FcRn (human, UniProt P55899); FcγRIIIa (human, UniProt P08637); C1q (human, UniProt P02745).
Experiment in all cases: BLI
For orientation: In BLI a coated tip is dipped into the sample, and binding shifts an interference pattern.

A further assay deals with T1, FcγRIIa (human, UniProt P12318).
T1 chain: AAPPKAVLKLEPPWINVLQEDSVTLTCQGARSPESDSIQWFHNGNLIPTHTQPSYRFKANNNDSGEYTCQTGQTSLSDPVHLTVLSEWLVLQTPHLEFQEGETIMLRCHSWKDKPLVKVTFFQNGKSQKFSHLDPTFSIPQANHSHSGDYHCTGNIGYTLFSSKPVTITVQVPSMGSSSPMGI

Chain of C1q (P02745 23-245, chain 1 of 3): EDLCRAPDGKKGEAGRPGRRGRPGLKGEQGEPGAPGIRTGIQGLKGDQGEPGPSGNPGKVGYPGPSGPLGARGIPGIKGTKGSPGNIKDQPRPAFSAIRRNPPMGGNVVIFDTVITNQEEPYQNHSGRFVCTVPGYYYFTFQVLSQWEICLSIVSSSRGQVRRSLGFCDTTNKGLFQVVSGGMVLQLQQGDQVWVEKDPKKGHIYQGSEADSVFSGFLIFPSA
Chain of C1q (P02746 28-253, chain 2 of 3, further chain): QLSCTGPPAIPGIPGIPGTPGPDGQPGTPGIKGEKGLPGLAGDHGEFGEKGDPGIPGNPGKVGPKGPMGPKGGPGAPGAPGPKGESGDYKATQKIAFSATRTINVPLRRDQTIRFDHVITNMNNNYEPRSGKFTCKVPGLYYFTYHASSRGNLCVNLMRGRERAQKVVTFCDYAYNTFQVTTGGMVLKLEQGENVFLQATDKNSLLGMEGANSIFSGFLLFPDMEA
Chain of C1q (P02747 29-245, chain 3 of 3, further chain): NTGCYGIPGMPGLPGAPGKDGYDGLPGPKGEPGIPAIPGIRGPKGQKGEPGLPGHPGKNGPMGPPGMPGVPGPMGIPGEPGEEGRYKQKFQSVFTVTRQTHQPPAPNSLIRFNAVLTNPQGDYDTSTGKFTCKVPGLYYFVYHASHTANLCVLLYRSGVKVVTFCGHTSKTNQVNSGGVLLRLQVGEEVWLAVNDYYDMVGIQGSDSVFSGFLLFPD
Chain of FcRn (P55899 24-297, chain 1 of 2): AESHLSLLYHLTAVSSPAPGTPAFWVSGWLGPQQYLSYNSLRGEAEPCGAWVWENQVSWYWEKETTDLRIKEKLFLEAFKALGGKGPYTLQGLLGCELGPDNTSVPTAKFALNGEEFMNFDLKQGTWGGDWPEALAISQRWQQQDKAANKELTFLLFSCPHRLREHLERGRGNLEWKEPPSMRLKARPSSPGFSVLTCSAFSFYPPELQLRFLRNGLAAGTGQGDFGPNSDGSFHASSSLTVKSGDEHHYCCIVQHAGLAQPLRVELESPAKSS
Chain of FcRn (chain, as listed by the source, chain 2 of 2): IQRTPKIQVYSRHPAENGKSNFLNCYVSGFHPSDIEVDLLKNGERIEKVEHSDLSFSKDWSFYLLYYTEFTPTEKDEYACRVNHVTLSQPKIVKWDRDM
Chain of FcγRIIIa (P08637 17-208): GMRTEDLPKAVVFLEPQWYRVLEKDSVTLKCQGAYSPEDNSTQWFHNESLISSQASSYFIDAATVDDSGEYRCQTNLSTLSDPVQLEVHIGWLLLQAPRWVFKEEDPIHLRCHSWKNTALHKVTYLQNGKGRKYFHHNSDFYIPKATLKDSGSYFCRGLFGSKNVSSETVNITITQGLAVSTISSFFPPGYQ

B1: Q-SBL-111 (antibody)
chain 1: not shown
chain 2: not shown
chain 3: EVQLVESGGGLVQPGGSLRLSCAASGYTFTNYGMNWVRQAPGKGLEWVGWINTYTGEPTYAADFKRRFTFSLDTSKSTAYLQMNSLRAEDTAVYYCAKYPHYYGSSHWYFDVWGQGTLVTVSSASTKGPSVFPLAPSSKSTSGGTAALGCLVKDYFPEPVTVSWNSGALTSGVHTFPAVLQSSGLYSLSSVVTVPSSSLGTQTYICNVNHKPSNTKVDKKVEPKSCDKTHTCPPCPAPELLGGPSVFLFPPKPKDTLMISRTPEVTCVVVDVSHEDPEVKFNWYVDGVEVHNAKTKPREEQYNSTYRVVSVLTVLHQDWLNGKEYKCKVSNKALPAPIEKTISKAKGQPREPQVCTLPPSRREMTKNQVSLWCLVKGFYPSDIAVEWESNGQPENNYKTTPPVLDSDGSFFLYSKLTVDKSRWQQGNVFSCSVMHEALHNHYTQKSLSLSPGK
chain 4: not shown
The term Kd denotes the concentration at which binding is half-saturated. Lower therefore signals higher affinity. For the molecule B1, the Kd was found to be 2040 nM with FcγRIIa, 690 nM with FcRn, 490 nM in the assay with FcγRIIIa and 30 nM with C1q.

B2: Q-SBL-136 (antibody)
chain 1: not shown
chain 2: not shown
chain 3: EVQLVESGGGLVQPGGSLRLSCAASGYTFTNYGMNWVRQAPGKGLEWVGWINTYTGEPTYAADFKRRFTFSLDTSKSTAYLQMNSLRAEDTAVYYCAKYPHYYGSSHWYFDVWGQGTLVTVSSASTKGPSVFPLAPSSKSTSGGTAALGCLVKDYFPEPVTVSWNSGALTSGVHTFPAVLQSSGLYSLSSVVTVPSSSLGTQTYICNVNHKPSNTKVDKKVEPKSCDKTHTCPPCPAPELLGGPSVFLFPPKPKDTLMISRTPEVTCVVVDVSHEDPEVKFNWYVDGVEVHNAKTKPREEQYNSTYRVVSVLTVLHQDWLNGKEYKCKVSNKALPAPIEKTISKAKGQPREPQVCTLPPSREEMTKNQVSLWCLVKGFYPSDIAVEWESNGQPENNYKTTPPVLDSDGSFFLYSTLTVDKSRWQQGNVFSCSVMHEALHNHYTQKSLSLSPGK
chain 4: not shown
In the case of B2, the figures for the Kd in the assay with FcγRIIa, in the assay with FcRn and with FcγRIIIa were 1970 nM, 620 nM and 230 nM, respectively.

B3: Q-SBL-117 (antibody)
chain 1: not shown
chain 2: not shown
chain 3: EVQLVESGGGLVQPGGSLRLSCAASGYTFTNYGMNWVRQAPGKGLEWVGWINTYTGEPTYAADFKRRFTFSLDTSKSTAYLQMNSLRAEDTAVYYCAKYPHYYGSSHWYFDVWGQGTLVTVSSASTKGPSVFPLAPSSKSTSGGTAALGCLVKDYFPEPVTVSWNSGALTSGVHTFPAVLQSSGLYSLSSVVTVPSSSLGTQTYICNVNHKPSNTKVDKKVEPKSCDKTHTCPPCPAPELLGGPSVFLFPPKPKDTLMISRTPEVTCVVVDVSHEDPEVKFNWYVDGVEVHNAKTKPREEQYNSTYRVVSVLTVLHQDWLNGKEYKCKVSNKALPAPIEKTISKAKGQPREPQVCTLPPSRKEMTKNQVSLWCLVKGFYPSDIAVEWESNGQPENNYKTTPPVLDSDGSFFLYSKLTVDKSRWQQGNVFSCSVMHEALHNHYTQKSLSLSPGK
chain 4: not shown
As for B3, the Kd worked out at 2550 nM in the assay with FcγRIIa, 360 nM with FcγRIIIa and 40 nM with C1q.

B4: Q-SBL-105 (antibody)
chain 1: not shown
chain 2: not shown
chain 3: EVQLVESGGGLVQPGGSLRLSCAASGYTFTNYGMNWVRQAPGKGLEWVGWINTYTGEPTYAADFKRRFTFSLDTSKSTAYLQMNSLRAEDTAVYYCAKYPHYYGSSHWYFDVWGQGTLVTVSSASTKGPSVFPLAPSSKSTSGGTAALGCLVKDYFPEPVTVSWNSGALTSGVHTFPAVLQSSGLYSLSSVVTVPSSSLGTQTYICNVNHKPSNTKVDKKVEPKSCDKTHTCPPCPAPELLGGPSVFLFPPKPKDTLMISRTPEVTCVVVDVSHEDPEVKFNWYVDGVEVHNAKTKPREEQYNSTYRVVSVLTVLHQDWLNGKEYKCKVSNKALPAPIEKTISKAKGQPREPQVCTLPPSRRRMTKNQVSLWCLVKGFYPSDIAVEWESNGQPENNYKTTPPVLDSDGSFFLYSKLTVDKSRWQQGNVFSCSVMHEALHNHYTQKSLSLSPGK
chain 4: not shown
Regarding B4, the values for the Kd with FcγRIIa, in the assay with FcRn and in the assay with FcγRIIIa were 1910 nM, 710 nM and 430 nM, respectively.

B5: Q-SBL-114 (antibody)
chain 1: not shown
chain 2: not shown
chain 3: EVQLVESGGGLVQPGGSLRLSCAASGYTFTNYGMNWVRQAPGKGLEWVGWINTYTGEPTYAADFKRRFTFSLDTSKSTAYLQMNSLRAEDTAVYYCAKYPHYYGSSHWYFDVWGQGTLVTVSSASTKGPSVFPLAPSSKSTSGGTAALGCLVKDYFPEPVTVSWNSGALTSGVHTFPAVLQSSGLYSLSSVVTVPSSSLGTQTYICNVNHKPSNTKVDKKVEPKSCDKTHTCPPCPAPELLGGPSVFLFPPKPKDTLMISRTPEVTCVVVDVSHEDPEVKFNWYVDGVEVHNAKTKPREEQYNSTYRVVSVLTVLHQDWLNGKEYKCKVSNKALPAPIEKTISKAKGQPREPQVCTLPPSREEMTKNQVSLWCLVKGFYPSDIAVEWESNGQPENNYKTTPPVLHSDGSFFLYSKLTVDKSRWQQGNVFSCSVMHEALHNHYTQKSLSLSPGK
chain 4: not shown
As for B5, the dissociation constant (Kd) with FcγRIIa was 1860 nM; with FcγRIIIa, 230 nM; with C1q it was 18 nM.

B6: Q-SBL-135 (antibody)
chain 1: not shown
chain 2: not shown
chain 3: EVQLVESGGGLVQPGGSLRLSCAASGYTFTNYGMNWVRQAPGKGLEWVGWINTYTGEPTYAADFKRRFTFSLDTSKSTAYLQMNSLRAEDTAVYYCAKYPHYYGSSHWYFDVWGQGTLVTVSSASTKGPSVFPLAPSSKSTSGGTAALGCLVKDYFPEPVTVSWNSGALTSGVHTFPAVLQSSGLYSLSSVVTVPSSSLGTQTYICNVNHKPSNTKVDKKVEPKSCDKTHTCPPCPAPELLGGPSVFLFPPKPKDTLMISRTPEVTCVVVDVSHEDPEVKFNWYVDGVEVHNAKTKPREEQYNSTYRVVSVLTVLHQDWLNGKEYKCKVSNKALPAPIEKTISKAKGQPREPQVCTLPPSREEMTKNQVSLWCLVKGFYPSDIAVEWESNGQPENNYKTTPPVLDSDGSFFLYSVLTVDKSRWQQGNVFSCSVMHEALHNHYTQKSLSLSPGK
chain 4: not shown
As to B6, the equilibrium dissociation constant (Kd) with FcγRIIa turned out to be 1380 nM; in the assay with FcRn it was 650 nM; in the assay with FcγRIIIa, 300 nM.

B7: Q-SBL-101 (antibody)
chain 1: not shown
chain 2: not shown
chain 3: EVQLVESGGGLVQPGGSLRLSCAASGYTFTNYGMNWVRQAPGKGLEWVGWINTYTGEPTYAADFKRRFTFSLDTSKSTAYLQMNSLRAEDTAVYYCAKYPHYYGSSHWYFDVWGQGTLVTVSSASTKGPSVFPLAPSSKSTSGGTAALGCLVKDYFPEPVTVSWNSGALTSGVHTFPAVLQSSGLYSLSSVVTVPSSSLGTQTYICNVNHKPSNTKVDKKVEPKSCDKTHTCPPCPAPELLGGPSVFLFPPKPKDTLMISRTPEVTCVVVDVSHEDPEVKFNWYVDGVEVHNAKTKPREEQYNSTYRVVSVLTVLHQDWLNGKEYKCKVSNKALPAPIEKTISKAKGQPREPQVCTLPPSRREMTKNQVSLWCLVKGFYPSDIAVEWESNGQPENNYKTTPPVLDSDGSFFLYSKLTVDKSRWQQGNVFSCSVMHEALHNHYTQKSLSLSPGK
chain 4: not shown
On to B7, for which the Kd with FcγRIIa is 2460 nM; with FcRn, 730 nM; with FcγRIIIa, 500 nM; with C1q it was 36 nM.

B8: Q-SBL-115 (antibody)
chain 1: not shown
chain 2: not shown
chain 3: EVQLVESGGGLVQPGGSLRLSCAASGYTFTNYGMNWVRQAPGKGLEWVGWINTYTGEPTYAADFKRRFTFSLDTSKSTAYLQMNSLRAEDTAVYYCAKYPHYYGSSHWYFDVWGQGTLVTVSSASTKGPSVFPLAPSSKSTSGGTAALGCLVKDYFPEPVTVSWNSGALTSGVHTFPAVLQSSGLYSLSSVVTVPSSSLGTQTYICNVNHKPSNTKVDKKVEPKSCDKTHTCPPCPAPELLGGPSVFLFPPKPKDTLMISRTPEVTCVVVDVSHEDPEVKFNWYVDGVEVHNAKTKPREEQYNSTYRVVSVLTVLHQDWLNGKEYKCKVSNKALPAPIEKTISKAKGQPREPQVCTLPPSRERMTKNQVSLWCLVKGFYPSDIAVEWESNGQPENNYKTTPPVLDSDGSFFLYSKLTVDKSRWQQGNVFSCSVMHEALHNHYTQKSLSLSPGK
chain 4: not shown
As to B8, the dissociation constant (Kd) in the assay with FcγRIIa turned out to be 1970 nM; with FcRn it was 690 nM; with FcγRIIIa it was 290 nM; in the assay with C1q, 18 nM.

B9: Q-SBL-106 (antibody)
chain 1: not shown
chain 2: not shown
chain 3: EVQLVESGGGLVQPGGSLRLSCAASGYTFTNYGMNWVRQAPGKGLEWVGWINTYTGEPTYAADFKRRFTFSLDTSKSTAYLQMNSLRAEDTAVYYCAKYPHYYGSSHWYFDVWGQGTLVTVSSASTKGPSVFPLAPSSKSTSGGTAALGCLVKDYFPEPVTVSWNSGALTSGVHTFPAVLQSSGLYSLSSVVTVPSSSLGTQTYICNVNHKPSNTKVDKKVEPKSCDKTHTCPPCPAPELLGGPSVFLFPPKPKDTLMISRTPEVTCVVVDVSHEDPEVKFNWYVDGVEVHNAKTKPREEQYNSTYRVVSVLTVLHQDWLNGKEYKCKVSNKALPAPIEKTISKAKGQPREPQVCTLPPSRERMTKNQVSLWCLVKGFYPSDIAVEWESNGQPENNYKTTPPVLHSDGSFFLYSKLTVDKSRWQQGNVFSCSVMHEALHNHYTQKSLSLSPGK
chain 4: not shown
Consider B9, for which the equilibrium dissociation constant (Kd) with FcRn was 680 nM.

B10: Q-SBL-103 (antibody)
chain 1: not shown
chain 2: not shown
chain 3: EVQLVESGGGLVQPGGSLRLSCAASGYTFTNYGMNWVRQAPGKGLEWVGWINTYTGEPTYAADFKRRFTFSLDTSKSTAYLQMNSLRAEDTAVYYCAKYPHYYGSSHWYFDVWGQGTLVTVSSASTKGPSVFPLAPSSKSTSGGTAALGCLVKDYFPEPVTVSWNSGALTSGVHTFPAVLQSSGLYSLSSVVTVPSSSLGTQTYICNVNHKPSNTKVDKKVEPKSCDKTHTCPPCPAPELLGGPSVFLFPPKPKDTLMISRTPEVTCVVVDVSHEDPEVKFNWYVDGVEVHNAKTKPREEQYNSTYRVVSVLTVLHQDWLNGKEYKCKVSNKALPAPIEKTISKAKGQPREPQVCTLPPSRERMTKNQVSLWCLVKGFYPSDIAVEWESNGQPENNYKTTPPVLDSDGSFFLYSKLTVDKSRWQQGNVFSCSVMHEALHNHYTQKSLSLSPGK
chain 4: not shown
On to B10, for which the equilibrium dissociation constant (Kd) with FcγRIIa worked out at 1130 nM; with FcγRIIIa, 220 nM; with C1q, 40 nM.

B11: Q-SBL-104 (antibody)
chain 1: not shown
chain 2: not shown
chain 3: EVQLVESGGGLVQPGGSLRLSCAASGYTFTNYGMNWVRQAPGKGLEWVGWINTYTGEPTYAADFKRRFTFSLDTSKSTAYLQMNSLRAEDTAVYYCAKYPHYYGSSHWYFDVWGQGTLVTVSSASTKGPSVFPLAPSSKSTSGGTAALGCLVKDYFPEPVTVSWNSGALTSGVHTFPAVLQSSGLYSLSSVVTVPSSSLGTQTYICNVNHKPSNTKVDKKVEPKSCDKTHTCPPCPAPELLGGPSVFLFPPKPKDTLMISRTPEVTCVVVDVSHEDPEVKFNWYVDGVEVHNAKTKPREEQYNSTYRVVSVLTVLHQDWLNGKEYKCKVSNKALPAPIEKTISKAKGQPREPQVCTLPPSRREMTKNQVSLWCLVKGFYPSDIAVEWESNGQPENNYKTTPPVLHSDGSFFLYSKLTVDKSRWQQGNVFSCSVMHEALHNHYTQKSLSLSPGK
chain 4: not shown
As to B11, the values for the equilibrium dissociation constant (Kd) in the assay with FcγRIIa and with FcRn were 1870 nM and 680 nM, respectively.
